# Assay results reported in patent US20260232732A1 (FUNDACI INSTITUT DE RECERCA CONTRA LA LEUC MIA JOSEP …, published 2026).
# Where no end group is shown, it is not given here. The star is where a group is joined. Biotin = O=C1N[C@H]2[C@H](CS[C@H]2CCCCC(=O)*)N1
# B1: anti-CCR9 antibody clone 115 (murine, from hybridoma #115) (antibody, V domains shown)
# VH: QVQLKQSGPELVKPGTSVRVSCTASGYSFTDYIIYWVKQSHGRSLEWIGYIDPNNYNTRYSQKFKGKATLTVDKSSTSAFMHLNSLTSDDSAVYYCARDVYWGQGTTLTVSS
# VL: DVVMTQTPLSLTVSLGDQASISCRSSQSLVHSNGKTYLQWYLQKPGQSPKLLIYKVSNRFSGVPDRFSGSGSGTDFTLKISRVEAEDLGVYFCAQSTHVWTFGGGTKLEIKR
# notes: Mouse IgG1
# B2: Comparative antibody 1 (Comp-1) scFv, SEQ ID NO: 10 from WO2023/037125 A1, His-tagged (scFv)
# scFv: QVQLKESGPGLVQPSQTLSLTCTVSGFSVASYDMHWVRLPPGKGLEWMGIIWANGNTHYNSGLKSRLSISRDTSKSQVFLKMNSLQTEDTAIYFCTRGGFAYWGQGTLVTVSSGGGGSGGGGSGGGGSGGGGSDVVMTQTPVSLSVSLGGQVSISCRSSQSLVHNNGNTYLSWYLQKPGQSPQLLIYKVSNRFSGVSDRFSGSGSGTDFTLKISRVEPDDLGVYYCGQGTQYPTFGGGTKLELKHHHHHH
# Tests used:
# [1] = molecular target: T1, human CCR9 on cells (MOLT-4, SupT1) (human, UniProt P51686 1-369); assay: flow cytometry on 300.19 cells overexpressing human CCR9 against CCR9-negative 300.19 WT cells, detection with anti-mouse-IgG(H+L) A647 [Cont.) B]
# T1 construct: whole, on cells; also called C-C chemokine receptor type 9; CDw199
# T1 sequence (looked up): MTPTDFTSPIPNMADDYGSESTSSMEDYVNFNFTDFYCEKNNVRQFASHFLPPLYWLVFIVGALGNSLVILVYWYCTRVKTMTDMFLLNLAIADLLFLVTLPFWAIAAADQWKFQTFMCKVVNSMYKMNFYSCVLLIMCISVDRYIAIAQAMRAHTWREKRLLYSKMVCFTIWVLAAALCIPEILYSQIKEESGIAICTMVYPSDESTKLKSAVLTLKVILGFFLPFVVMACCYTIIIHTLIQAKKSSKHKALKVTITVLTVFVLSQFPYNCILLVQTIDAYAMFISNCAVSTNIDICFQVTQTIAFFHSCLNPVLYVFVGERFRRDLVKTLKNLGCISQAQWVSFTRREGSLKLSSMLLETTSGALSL
# [2] = molecular target: T2, Peptide 1-BSA (MADDYGSEST-C conjugated to BSA) (human); assay: ELISA, BSA-conjugated peptide coated
# T2 peptide: MADDYGSESTC(BSA)
# Method: (§1) In brief, plates with each non-conjugated peptide (50 μg/mL) or BSA-conjugated peptide (5 μg/mL) were coated in 0.58M carbonate-bicarbonate buffer pH9.5, 100 μL/well, at 4° C. […] After washing, wells were incubated with the 3, 3′,5,5′-Tetramethylbenzidine (TMB) HRP substrate and reactions were stopped with 2M HCl and OD450 was recorded.
# [3] = molecular target: T3, Peptide 2-BSA (GSESTSSMED-C conjugated to BSA) (human); assay: ELISA, BSA-conjugated peptide coated
# T3 peptide: GSESTSSMEDC(BSA)
# Method: as §1
# [4] = molecular target: T4, Peptide 4, non-conjugated (SMEDYVNFNF-C) (human); assay: ELISA; Ab 1 ug/mL; repII
# T4 construct: With the extra C-terminal Cys
# T4 peptide: SMEDYVNFNFC
# Method: as §1
# [5] = molecular target: T5, BSA (negative control coating) (bovine, UniProt P02769 25-607); assay: ELISA; Ab 1 ug/mL; repII
# T5 construct: also called Negative control BSA
# Method: as §1
# [6] = molecular target: T6, antigen peptide-BSA (immunisation peptide #1 MADDYGSESTSSMEDYVNFNF-C conjugated to BSA) (human, extra C-terminal Cys conjugated to BSA); assay: ELISA; Ab 1 ug/mL; repII
# T6 construct: also called Positive control antigen peptide-BSA; MADDY peptide
# T6 peptide: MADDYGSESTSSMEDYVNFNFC
# Method: as §1
# [7] = molecular target: T7, Peptide 4-BSA (SMEDYVNFNF-C conjugated to BSA) (human); assay: ELISA; Ab 1 ug/mL; repII
# T7 peptide: SMEDYVNFNFC(BSA)
# Method: as §1
# [8] = molecular target: T8, Peptide 3, non-conjugated (SSMEDYVNFN-C) (human); assay: ELISA; Ab 1 ug/mL; repII
# T8 construct: With the extra C-terminal Cys
# T8 peptide: SSMEDYVNFNC
# Method: as §1
# [9] = molecular target: T2, Peptide 1-BSA (MADDYGSEST-C conjugated …); assay: ELISA; Ab 1 ug/mL; repII
# Method: as §1
# [10] = molecular target: T9, Peptide 1, non-conjugated (MADDYGSEST-C) (human); assay: ELISA; Ab 1 ug/mL; repII
# T9 construct: With the extra C-terminal Cys
# T9 peptide: MADDYGSESTC
# Method: as §1
# [11] = molecular target: T3, Peptide 2-BSA (GSESTSSMED-C conjugated …); assay: ELISA; Ab 1 ug/mL; repII
# Method: as §1
# naked peptide YVNFNFTDFY = molecular target: T10, naked peptide YVNFNFTDFY (human); assay: ELISA, naked peptide
# T10 peptide: YVNFNFTDFY
# naked peptide TDFYCEKNNV = molecular target: T11, naked peptide TDFYCEKNNV (human); assay: ELISA, naked peptide
# T11 peptide: TDFYCEKNNV
# naked peptide SESTSSMEDY = molecular target: T12, naked peptide SESTSSMEDY (human); assay: ELISA, naked peptide
# T12 peptide: SESTSSMEDY
# naked peptide SSMEDYVNFN = molecular target: T13, naked peptide SSMEDYVNFN (human); assay: ELISA, naked peptide
# T13 peptide: SSMEDYVNFN
# naked peptide MTPTDFTSPI = molecular target: T14, naked peptide MTPTDFTSPI (human); assay: ELISA, naked peptide
# T14 peptide: MTPTDFTSPI
# naked peptide IPNMADDYGS = molecular target: T15, naked peptide IPNMADDYGS (human); assay: ELISA, naked peptide
# T15 peptide: IPNMADDYGS
# [12] = molecular target: T16, biotin-peptide SSMEDYVNFN (human); assay: ELISA, biotin-peptide
# T16 peptide: Biotin-SSMEDYVNFN
# [13] = molecular target: T17, biotin-peptide MTPTDFTSPI (human, also: prints MTPTDFTSP, without I10); assay: ELISA, biotin-peptide
# T17 peptide: Biotin-MTPTDFTSPI
# [14] = molecular target: T18, biotin-peptide SESTSSMEDY (human); assay: ELISA, biotin-peptide
# T18 peptide: Biotin-SESTSSMEDY
# [15] = molecular target: T19, biotin-peptide TSSMEDYVNF (human); assay: ELISA, biotin-peptide
# T19 peptide: Biotin-TSSMEDYVNF
# biotin-peptide KNNVRQFAS = molecular target: T20, biotin-peptide KNNVRQFAS (human); assay: ELISA, biotin-peptide
# T20 peptide: Biotin-KNNVRQFAS
# [16] = molecular target: T21, biotin-peptide YCEKNNVRQF (human); assay: ELISA, biotin-peptide
# T21 peptide: Biotin-YCEKNNVRQF
# [17] = molecular target: T22, biotin-peptide MADDYGSEST (human); assay: ELISA, biotin-peptide
# T22 peptide: Biotin-MADDYGSEST
# [18] = molecular target: T23, biotin-peptide FNFTDFYCEK (human); assay: ELISA, biotin-peptide
# T23 peptide: Biotin-FNFTDFYCEK
# [19] = molecular target: T24, biotin-peptide TSPIPNMADD (human); assay: ELISA, biotin-peptide
# T24 peptide: Biotin-TSPIPNMADD
# [20] = molecular target: T25, biotin-peptide DYGSESTSSM (human); assay: ELISA, biotin-peptide
# T25 peptide: Biotin-DYGSESTSSM
# [21] = molecular target: T26, biotin-peptide IPNMADDYGS (human); assay: ELISA, biotin-peptide
# T26 peptide: Biotin-IPNMADDYGS
# [22] = molecular target: T27, biotin-peptide SMEDYVNFNF (human); assay: ELISA, biotin-peptide
# T27 peptide: Biotin-SMEDYVNFNF
# [23] = molecular target: T28, biotin-peptide TDFTSPIPNM (human); assay: ELISA, biotin-peptide
# T28 peptide: Biotin-TDFTSPIPNM
# [24] = molecular target: T29, biotin-peptide TDFYCEKNNV (human); assay: ELISA, biotin-peptide
# T29 peptide: Biotin-TDFYCEKNNV
# [25] = molecular target: T30, biotin-peptide YVNFNFTDFY (human); assay: ELISA, biotin-peptide
# T30 peptide: Biotin-YVNFNFTDFY
# [26] = molecular target: T31, biotin-peptide MEDYVNFNFT (human); assay: ELISA, biotin-peptide
# T31 peptide: Biotin-MEDYVNFNFT
# T5 sequence (P02769 25-607 limits assumed): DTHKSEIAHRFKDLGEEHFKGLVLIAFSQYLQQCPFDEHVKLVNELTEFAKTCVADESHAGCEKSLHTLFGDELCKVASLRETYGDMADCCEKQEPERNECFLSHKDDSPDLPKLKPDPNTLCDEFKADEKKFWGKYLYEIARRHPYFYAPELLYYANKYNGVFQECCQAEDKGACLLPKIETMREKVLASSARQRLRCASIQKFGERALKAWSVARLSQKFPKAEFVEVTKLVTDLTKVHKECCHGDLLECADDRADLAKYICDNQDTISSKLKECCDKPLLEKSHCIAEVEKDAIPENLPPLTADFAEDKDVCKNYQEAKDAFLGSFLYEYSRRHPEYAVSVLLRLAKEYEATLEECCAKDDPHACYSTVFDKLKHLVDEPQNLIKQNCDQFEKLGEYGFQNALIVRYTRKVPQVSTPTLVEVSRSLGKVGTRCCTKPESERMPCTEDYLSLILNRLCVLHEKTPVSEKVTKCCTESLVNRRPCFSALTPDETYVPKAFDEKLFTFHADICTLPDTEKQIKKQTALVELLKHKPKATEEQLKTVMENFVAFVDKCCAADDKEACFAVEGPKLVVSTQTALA
binder,measurement,setting,value
B1,binding result,[1],binds
same,binding result,[2],no binding (tested: 1 ug/mL)
same,binding result,[3],no binding (tested: 1 ug/mL)
same,OD450,[4],2.46 OD
same,OD450,[5],0.02 OD
same,OD450,[6],2.68 OD
same,OD450,[7],2.75 OD
same,OD450,[8],2.1 OD
same,OD450,[9],0.03 OD
same,OD450,[10],0.02 OD
same,OD450,[11],0.03 OD
B2,binding result,naked peptide YVNFNFTDFY,no binding (tested: 1 ug/mL)
same,binding result,naked peptide TDFYCEKNNV,no binding (tested: 1 ug/mL)
same,binding result,naked peptide SESTSSMEDY,no binding (tested: 1 ug/mL)
same,binding result,naked peptide SSMEDYVNFN,no binding (tested: 1 ug/mL)
same,binding result,naked peptide MTPTDFTSPI,no binding (tested: 1 ug/mL)
same,binding result,naked peptide IPNMADDYGS,no binding (tested: 1 ug/mL)
same,binding result,[12],no binding (tested: 10 ug/mL)
same,binding result,[13],no binding (tested: 10 ug/mL)
same,binding result,[14],no binding (tested: 10 ug/mL)
same,binding result,[15],no binding (tested: 10 ug/mL)
same,binding result,biotin-peptide KNNVRQFAS,no binding (tested: 10 ug/mL)
same,binding result,[16],no binding (tested: 10 ug/mL)
same,binding result,[17],no binding (tested: 10 ug/mL)
same,binding result,[18],no binding (tested: 10 ug/mL)
same,binding result,[19],no binding (tested: 10 ug/mL)
same,binding result,[20],no binding (tested: 10 ug/mL)
same,binding result,[21],no binding (tested: 10 ug/mL)
same,binding result,[22],no binding (tested: 10 ug/mL)
same,binding result,[23],no binding (tested: 10 ug/mL)
same,binding result,[24],no binding (tested: 10 ug/mL)
same,binding result,[25],no binding (tested: 10 ug/mL)
same,binding result,[26],no binding (tested: 10 ug/mL)
